Among the data in patent US20030054360 are Kd values, retold here.

Common to all, as to test: filter
In data set [1] the target is beta-Nerve Growth Factor (beta-NGF) (UniProt P01138). The settings on record: 5-BrdU replaces T, apparent photocrosslink KD.
Data set [2] concerns the target Angiogenin (UniProt P03950). To be noted: 5-BrdU replaces T, apparent photocrosslink KD.
For data set [3], the target named is T1, P-Selectin (Homo sapiens) (UniProt P16109).
T1 sequence: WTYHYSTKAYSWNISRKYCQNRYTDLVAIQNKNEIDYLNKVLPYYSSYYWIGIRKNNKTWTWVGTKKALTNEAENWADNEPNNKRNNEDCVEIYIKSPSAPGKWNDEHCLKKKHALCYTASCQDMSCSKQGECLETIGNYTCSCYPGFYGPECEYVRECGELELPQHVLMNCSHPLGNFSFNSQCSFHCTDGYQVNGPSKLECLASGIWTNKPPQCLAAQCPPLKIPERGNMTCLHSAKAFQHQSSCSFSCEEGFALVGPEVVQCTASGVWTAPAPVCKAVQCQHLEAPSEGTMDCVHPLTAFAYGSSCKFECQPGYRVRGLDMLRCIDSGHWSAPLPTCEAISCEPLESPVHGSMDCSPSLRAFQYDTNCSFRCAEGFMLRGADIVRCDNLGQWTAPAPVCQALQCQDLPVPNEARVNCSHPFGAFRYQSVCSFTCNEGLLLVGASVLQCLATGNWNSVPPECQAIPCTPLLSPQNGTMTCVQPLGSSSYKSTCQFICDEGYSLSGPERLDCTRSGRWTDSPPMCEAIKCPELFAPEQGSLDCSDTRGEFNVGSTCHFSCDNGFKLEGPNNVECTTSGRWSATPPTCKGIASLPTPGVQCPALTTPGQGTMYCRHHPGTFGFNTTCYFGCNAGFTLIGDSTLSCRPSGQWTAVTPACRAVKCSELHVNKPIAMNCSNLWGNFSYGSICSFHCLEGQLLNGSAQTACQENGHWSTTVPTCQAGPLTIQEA
To be noted: 5-BrdU replaces T, apparent photocrosslink KD.

Data set [4] has as its target platelet-derived growth factor (PDGF) (Homo sapiens) (UniProt P01127). To be noted: 5-BrdU replaces T, apparent photocrosslink KD.
Data set [5] has as its target Transforming Growth Factor beta1 (TGF-beta1) (UniProt P01137). The settings on record: 5-BrdU replaces T; apparent photocrosslink KD; plateau 80%; rate 0.5.
Data set [6] addresses T2, Interleukin-4 (UniProt P05112).
T2 sequence: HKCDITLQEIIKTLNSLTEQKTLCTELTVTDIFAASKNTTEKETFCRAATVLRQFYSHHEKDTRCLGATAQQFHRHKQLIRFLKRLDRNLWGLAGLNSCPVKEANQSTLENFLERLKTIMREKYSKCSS
The settings on record: 5-BrdU replaces T, apparent photocrosslink KD.

Chain of beta-Nerve Growth Factor (beta-NGF) (P01138 122-241): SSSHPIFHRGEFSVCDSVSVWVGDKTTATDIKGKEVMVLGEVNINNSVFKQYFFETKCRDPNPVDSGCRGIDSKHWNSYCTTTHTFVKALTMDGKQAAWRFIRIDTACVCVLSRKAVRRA
Chain of platelet-derived growth factor (PDGF) (Homo sapiens) (P01127 82-190): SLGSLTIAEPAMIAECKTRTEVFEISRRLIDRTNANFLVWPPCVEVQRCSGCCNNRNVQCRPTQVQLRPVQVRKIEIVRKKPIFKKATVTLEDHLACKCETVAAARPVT
Chain of Angiogenin (P03950 25-147): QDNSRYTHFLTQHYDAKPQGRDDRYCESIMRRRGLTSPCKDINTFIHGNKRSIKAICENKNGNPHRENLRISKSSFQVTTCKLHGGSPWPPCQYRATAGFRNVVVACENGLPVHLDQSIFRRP
Chain of Transforming Growth Factor beta1 (TGF-beta1) (P01137 279-390): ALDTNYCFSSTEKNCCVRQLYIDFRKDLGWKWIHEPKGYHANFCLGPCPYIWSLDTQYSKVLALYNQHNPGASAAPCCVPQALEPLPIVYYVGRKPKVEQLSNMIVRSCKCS

As to “ATATATATGGGAGGACGATGCGGGCACTAACTTTACCTCCACCTCTAACCACCCTCCTTTCTGCAGACGACGAGCGGGAAAAAAAA [beta-NGF pool 031 clone 65]”, in data set [1] (plateau 47%, rate 0.94), the Kd was determined as 0.2 nM.

Take “ATATATATGGGAGGACGATGCGGGCCCTACTTGCATGAATATCCACTCCTAGGCTTGAGGGAGCAGACGACGAGCGGGAAAAAAAA [Angiogenin pool 011 clone 85]”: the Kd in data set [2] (plateau 31%, rate 3.5) was found to be 0.2 nM.

Take “ATATATATGGGAGGACGATGCGGGCACCTACCTGAGCTACATATGACAGTGTCACCCTGGCCCCAGACGACGAGCGGGAAAAAAAA [Angiogenin pool 011 clone 14]”: the Kd in data set [2] (plateau 34%, rate 1.3) worked out at 0.2 nM.

As for “ATATATATGGGAGGACGATGCGGCCATACGCACTTCAGTGGGGATAATCCAACTGGTTTGGTGCAGACGACGAGCGGGAAAAAAAA [P-selectin pool 014 clone 95]”, in data set [3] (plateau 39%, rate 1.54, same sequence as SEQ 39), the Kd worked out at 45 nM.

For the sequence “ATATATATGGGAGGACGATGCGGGCCACGTGTATTATCCTCAGCTTATAGCCATGGCATGGACCAGACGACGAGCGGGAAAAAAAA [Angiogenin pool 011 clone 58]”, the Kd in data set [2] (plateau 16%, rate 1.58) was 2.2 nM.

As for “ATATATATGGGAGGACGATGCGGGCCAACCACGTGGTATTATTGACCTTGCAATGGGAATGCCCAGACGACGAGCGGGAAAAAAAA [Angiogenin pool 011 clone 11]”, the Kd in data set [2] (plateau 23%, rate 1.46) stood at 1.1 nM.

For the sequence “ATATATATGGGAGGACGATGCGGCACAAGGAACAAAGCGGCCCCTATCCCCAACAGACGACGAGCGGGAAAAAAAA [PDGF pool 008 clone 31]”, the Kd in data set [4] (plateau 100%, rate 0.19) stood at 5.3 nM.

In the case of “ATATATATGGGAGGACGATGCGGCGCCCCGATTGACCTTCGATTTATCCTACTTATGGCACCCCAGACGACGAGCGGGAAAAAAAA [P-selectin pool 014 clone 14]”, in data set [3] (plateau 15%, rate 4), the Kd was 0.35 nM.

On to “ATATATATGGGAGGACGATGCGGGCTCAATAACCTGAATCTACCTTTCCCTAGCAAAGGTCTGCAGACGACGAGCGGGAAAAAAAA [P-selectin pool 014 clone 24]”, for which, in data set [3] (plateau 30%, rate 1.86), the Kd was 2.1 nM.

For the sequence “ATATATATGGGAGGACGATGCGGGCGAAGGCACACCGAGTTCATAGTATCCCACAGACGACGAGCGGGAAAAAAAA [PDGF pool 4 clone 64]”, the Kd in data set [4] (plateau 53%, rate 0.2) turned out to be 4 nM.

In the case of “ATATATATGGGAGGACGATGCGGGCGGCAGACGCGCCGGGTACCCCAGGTCCCCAGACGACGAGCGGGAAAAAAAA [PDGF pool 008 clone 27]”, in data set [4] (plateau 100%, rate 0.34), the Kd was determined as 3.2 nM.

As to “ATATATATGGGAGGACGATGCGGGCACAATCAAGACCTCTCCAAACTTGAACTCTGTCTATCCCAGACGACGAGCGGGAAAAAAAA [TGF-beta1 pool 015 clone 87]”, the Kd in data set [5] amounted to 62 nM.

Regarding “ATATATATGGGAGGACGATGCGGGCCAAGGTTCCCTTCTGCCTCATTGTTGTGGGAACCCATCCAGACGACGAGCGGGAAAAAAAA [IL-4 pool 012 clone 41]”, in data set [6] (plateau 58%, rate 0.54, Table 7 sequence differs slightly from listing), the Kd was 61 nM.

In the case of “ATATATATGGGAGGACGATGCGGGCCTACCAACTCCCCTCTAGTCCTGTTCTATCCACGTTGGCAGACGACGAGCGGGAAAAAAAA [IL-4 pool 012 clone 31]”, the Kd in data set [6] (plateau 49%, rate 0.98) stood at 21 nM.

Turning to “ATATATATGGGAGGACGATGCGGCACGAGGGAATCACCTCGAACTTGTCCTGGATTACTGCCCAGACGACGAGCGGGAAAAAAAA [P-selectin pool 014 clone 21]”, the Kd in data set [3] (plateau 31%, rate 0.76) stood at 9.1 nM.

In the case of “ATATATATGGGAGGACGATGCGGGCACACTTAAATCCACTTCACCTTACAATTCCTTTATCTGCAGACGACGAGCGGGAAAAAAAA [beta-NGF pool 031 clone 17]”, the Kd in data set [1] (plateau 66%, rate 1.2, Table 7 sequence differs slightly from listing) was determined as 0.21 nM.

Consider “ATATATATGGGAGGACGATGCGGGACCAATAACACTACACTGATCATCTCCCTTCTATGTCCCCAGACGACGAGCGGGAAAAAAAA [beta-NGF pool 031 clone 7]”, for which the Kd in data set [1] (plateau 55%, rate 0.42) was determined as 2.5 nM.

As for “ATATATATGGGAGGACGATGCGGGCGGAAGAGGCAGGGTACCACGGCAGAGGTCAGACGACGAGCGGGAAAAAAAA [PDGF pool 4 clone 24]”, the Kd in data set [4] (plateau 52%, rate 0.25) amounted to 2 nM.

“ATATATATGGGAGGACGATGCGGCAAGGGAAACAGATAGCCCAGGCTCCCCCCCAGACGACGAGCGGGAAAAAAAA [PDGF pool 008 clone 37]”: in data set [4] (plateau 74%, rate 0.21), the Kd came out at 2.4 nM.

With “ATATATATGGGAGGACGATGCGGCACCAAAAGGTGGTCTTAGCCTAATTATGGACGTGTCCACCAGACGACGAGCGGGAAAAAAAA [Angiogenin pool 011 clone 27]”, the Kd in data set [2] (plateau 37%, rate 0.62) is 0.3 nM.

“ATATATATGGGAGGACGATGCGGGCCCCAAACACTTGTTCCTATCTTTCAACCCCCCTTGATCCAGACGACGAGCGGGAAAAAAAA [beta-NGF pool 031 clone 78]”: in data set [1] (plateau 94%, rate 0.38), the Kd was 31 nM.

With “ATATATATGGGAGGACGATGCGGCCATACGCACTTCAGTGGGGATAATCCAACTGGTTTGGTGCAGACGACGAGCGGGAAAAAAAA [beta-NGF pool 031 clone 43]”, the Kd in data set [1] (plateau 38%) turned out to be 7.9 nM.

As to “ATATATATGGGAGGACGATGCGGCCCCGAGTTTCCCTAAGGTTTGGTTGACCTGTCATTTCAGCAGACGACGAGCGGGAAAAAAAA [IL-4 pool 012 clone 48]”, the Kd in data set [6] (plateau 52%, rate 0.17) worked out at 4.3 nM.

On to “ATATATATGGGAGGACGATGCGGGCCAAATGGACTTTTCGCCACGAACTTACGACGGTGTTGCCAGACGACGAGCGGGAAAAAAAA [Angiogenin pool 011 clone 16]”, for which the Kd in data set [2] (plateau 28%, rate 2.6) was 0.3 nM.

For “ATATATATGGGAGGACGATGCGGGCCAACCCCTAGTGAACAACAACACTCCCACAGACGACGAGCGGGAAAAAAAA [PDGF pool 4 clone 87]”, in data set [4] (plateau 36%, rate 0.29), the Kd stood at 2 nM.

Regarding “ATATATATGGGAGGACGATGCGGGCAAAGTCTTGGTCCACCAAATATGTGATGTCACCACCAGCAGACGACGAGCGGGAAAAAAAA [Angiogenin pool 011 clone 59]”, the Kd in data set [2] (plateau 26%, rate 0.52) worked out at 0.22 nM.

Turning to “ATATATATGGGAGGACGATGCGGCCGGACATCCCCCAGGGCAAAACCAACTCCCAGACGACGAGCGGGAAAAAAAA [PDGF pool 008 clone 35]”, the Kd in data set [4] (plateau 71%, rate 0.07) came to 5.1 nM.

On to “ATATATATGGGAGGACGATGCGGGCCGAAGTCTAAACCTGCTCGTGACTTTCTTTCGATGTTGCAGACGACGAGCGGGAAAAAAAA [IL-4 pool 012 clone 8]”, for which, in data set [6] (plateau 40%, rate 1.8), the Kd stood at 39 nM.

With “ATATATATGGGAGGACGATGCGGGCCAAGGACATTCTTGTTCGTTGTTGCTGTCCACTGTCTCCAGACGACGAGCGGGAAAAAAAA [IL-4 pool 012 clone 78]”, the Kd in data set [6] (plateau 10%, rate 1.7) was found to be 9.7 nM.

Turning to “ATATATATGGGAGGACGATGCGGCCATGAACCCATCCTCTGGTTCATAATCGACGTGTTCGTGCAGACGACGAGCGGGAAAAAAAA [P-selectin pool 014 clone 17]”, the Kd in data set [3] (plateau 59%, rate 1.36) came to 18 nM.

With “ATATATATGGGAGGACGATGCGGGACCAAATACCAACTTCACATCACCTTTCTTATTCTCCGGCAGACGACGAGCGGGAAAAAAAA [beta-NGF pool 031 clone 44]”, the Kd in data set [1] (plateau 58%, rate 0.59) worked out at 2.2 nM.

For the sequence “ATATATATGGGAGGACGATGCGGCAGCACCGAGGTACCCAACAGGGATCCGCCCAGACGACGAGCGGGAAAAAAAA [PDGF pool 008 clone 26]”, the Kd in data set [4] (plateau 67%, rate 0.43) was 1.8 nM.

On to “ATATATATGGGAGGACGATGCGGGGGGCAAGAAGCACGGTACCCCAGGTCCGCCAGACGACGAGCGGGAAAAAAAA [PDGF pool 008 clone 33]”, for which the Kd in data set [4] (plateau 100%, rate 0.24) came to 5.7 nM.

Take “ATATATATGGGAGGACGATGCGGGGCAAACTGCGTCGTATTATAAGCCTCGCTACAGATGCCACAGACGACGAGCGGGAAAAAAAA [Angiogenin pool 011 clone 12]”: in data set [2] (plateau 31%, rate 0.68), the Kd is 0.1 nM.
